Results: US20150037340A1 (PEIRRE FABRE MEDICAMENT, published 2015)

Legend:
[1] = biological target: T1, human protein Axl (cellular form on the cell surface) (human, UniProt P30530 26-894); experiment: flow cytometry on MDA-MB-231 cells, goat anti-mouse Alexa 488
T1 construct: also called Axl receptor; membrane Axl receptor
T1 sequence: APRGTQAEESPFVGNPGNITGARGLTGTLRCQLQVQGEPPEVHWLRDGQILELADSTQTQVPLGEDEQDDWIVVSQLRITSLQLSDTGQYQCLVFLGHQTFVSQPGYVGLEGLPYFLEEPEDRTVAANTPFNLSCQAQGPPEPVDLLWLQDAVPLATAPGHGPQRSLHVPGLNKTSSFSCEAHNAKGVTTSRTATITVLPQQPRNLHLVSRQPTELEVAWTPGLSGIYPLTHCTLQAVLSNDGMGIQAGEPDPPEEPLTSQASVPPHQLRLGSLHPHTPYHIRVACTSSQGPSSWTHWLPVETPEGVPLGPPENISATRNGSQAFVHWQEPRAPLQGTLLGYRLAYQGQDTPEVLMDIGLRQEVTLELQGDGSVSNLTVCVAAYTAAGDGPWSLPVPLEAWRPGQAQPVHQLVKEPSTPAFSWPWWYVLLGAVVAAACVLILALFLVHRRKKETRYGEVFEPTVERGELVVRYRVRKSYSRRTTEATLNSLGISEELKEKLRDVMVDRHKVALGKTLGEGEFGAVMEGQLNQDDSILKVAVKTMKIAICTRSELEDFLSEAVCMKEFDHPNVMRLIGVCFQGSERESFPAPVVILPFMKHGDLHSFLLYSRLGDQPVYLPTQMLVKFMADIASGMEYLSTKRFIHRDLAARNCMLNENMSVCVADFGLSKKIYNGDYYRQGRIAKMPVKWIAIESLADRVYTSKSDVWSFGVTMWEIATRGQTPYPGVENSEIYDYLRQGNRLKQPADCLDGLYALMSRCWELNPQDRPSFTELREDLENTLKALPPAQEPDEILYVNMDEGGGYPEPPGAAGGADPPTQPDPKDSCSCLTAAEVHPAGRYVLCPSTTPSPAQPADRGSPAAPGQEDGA
Description: For cell surface binding studies, two fold serial dilutions of a 10 μg/m (6.66 10⁻⁸ M) primary antibody solution (1613F12, MAB154 antibody or mIgG1 isotype control 9G4 Mab) are prepared and are applied on 2.10⁵ cells for 20 min at 4° C. After 3 washes in phosphate-buffered saline (PBS) supplemented with 1% BSA and 0.01% NaN₃, cells were incubated with secondary antibody Goat anti-mouse Alexa 488 (1/500° dilution) for 20 minutes at 4° C. After 3 additional washes in PBS supplemented with 1% BSA and 0.1% NaN₃, cells were analyzed by FACS (Facscalibur, Becton-Dickinson). At least 5000 cells were assessed to calculate the mean value of fluorescence intensity.

[2] = biological target: T2, recombinant human Mer-Fc (R and D Systems, cat No 891-MR) (human, UniProt Q12866 26-499, limits assumed); experiment: ELISA on coated rhMer-Fc, detection with goat anti-mouse IgG-HRP
T2 construct: Bought protein; also called rhMer-Fc; rhMer; not shown: Fc portion
T2 sequence (looked up): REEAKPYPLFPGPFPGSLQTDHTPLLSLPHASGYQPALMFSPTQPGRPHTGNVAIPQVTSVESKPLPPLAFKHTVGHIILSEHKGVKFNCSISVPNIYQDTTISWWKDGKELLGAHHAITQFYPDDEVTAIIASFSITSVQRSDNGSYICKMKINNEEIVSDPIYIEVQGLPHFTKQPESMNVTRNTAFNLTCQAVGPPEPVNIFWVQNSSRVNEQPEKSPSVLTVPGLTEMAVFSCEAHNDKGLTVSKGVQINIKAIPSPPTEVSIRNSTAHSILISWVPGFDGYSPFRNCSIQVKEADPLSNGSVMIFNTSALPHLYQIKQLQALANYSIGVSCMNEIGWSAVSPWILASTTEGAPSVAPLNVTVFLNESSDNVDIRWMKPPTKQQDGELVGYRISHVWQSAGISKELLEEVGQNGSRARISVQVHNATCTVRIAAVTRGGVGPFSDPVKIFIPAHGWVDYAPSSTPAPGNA
Description: (§1) Then ½ serial dilutions were done over 12 columns. Plates were washed and a goat anti-mouse (Jackson) specific IgG-HRP was added for 1 h at 37° C. Reaction development was performed using the TMB substrate solution. […] Coating controls were performed in presence of a goat anti-human IgG Fc polyclonal serum labelled with HRP (Jackson, ref 109-035-098) and/or in presence of a HRP-coupled anti-Histidine antibody (R and D Systems, ref: MAB050H). Results are represented in FIGS. 2A, 2B and 2C, respectively.

[3] = biological target: T3, recombinant human Axl-Fc (R and D Systems, cat No 154-AL / 154AL/CF) (human, UniProt P30530 26-451); experiment: ELISA on coated rhAxl-Fc, detection with goat anti-mouse IgG-HRP
T3 construct: Bought protein; also called rhAxl-Fc; rh Axl-Fc protein; not shown: human IgG Fc portion (detected with anti-human IgG Fc)
T3 sequence: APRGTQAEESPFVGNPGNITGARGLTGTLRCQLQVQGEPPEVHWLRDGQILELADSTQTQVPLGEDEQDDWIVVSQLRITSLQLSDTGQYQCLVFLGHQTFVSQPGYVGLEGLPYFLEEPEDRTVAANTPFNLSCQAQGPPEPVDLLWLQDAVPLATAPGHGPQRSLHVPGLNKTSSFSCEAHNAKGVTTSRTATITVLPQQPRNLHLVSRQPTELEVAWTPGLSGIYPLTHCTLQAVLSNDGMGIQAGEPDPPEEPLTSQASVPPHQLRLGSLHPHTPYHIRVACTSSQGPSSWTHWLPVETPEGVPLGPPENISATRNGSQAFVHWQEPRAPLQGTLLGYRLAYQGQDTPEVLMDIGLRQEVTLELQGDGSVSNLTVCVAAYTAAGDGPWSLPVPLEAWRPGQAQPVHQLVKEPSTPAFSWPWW
Description: as §1

[4] = biological target: T1, human protein Axl (cellular form on the …); experiment: flow cytometry on SN12C cells, anti-mouse IgG Alexa488; table under the graph, unit from the axis Log [M]
Description: Cells were detached using trypsin and cell concentration was adjusted at 1×10⁶ cells/ml in FACS buffer. A volume of 100 μL of cell suspension was incubated with increasing concentrations of either isotype controls or anti-Axl antibodies for 20 min. at 4° C. Cells were then washed three times with FACS buffer and incubated for 20 min. more using either anti-mouse IgG Alexa488 secondary antibody or anti-human IgG Alexa488 secondary antibody at 4° C. in the dark. Cells were washed three times with FACS buffer and resuspended with 100 μl of FACS buffer before adding propidium iodide.

B1: 1613F12 antibody (murine form) (antibody, V domains shown)
VH: EVHLQQSGAELVKPGASVKLSCTASGFNIRDTYIHWVKQRPEQGLEWIGRLDPANGHTKYGPNFQGRATMTSDTSSNTAYLQLSSLTSEDTAVYYCARGAYYYGSSGLFYFDYWGQGTTLSVSS
VL: DVQITQSPSYLATSPGETITINCRASKSISKYLAWYQEKPGKTNKLLIYSGSTLQSGVPSRFSGSGSGTDFTLTISSLEPEDFAMYFCQQHHEYPLTFGAGTELELK
notes: Whole murine monoclonal antibody purified from a hybridoma; a murine IgG1 (9G4) serves as its isotype control; also called m1613F12; monoclonal antibody 1613F12 derived from the hybridoma I-4505
With B1 the “EC50 (read off the curve)” value [1] was roughly 1 nM, the binding result [2] was “no binding (tested: log -7.5 M)” and the “EC50 (read off the curve)” value [3] was roughly 1 nM. It also gave an EC50 [4] of 2.16 nM.
